Literature values, collected in PMC10954796, “Post-translational modifications of beta-amyloid alter its transport in the blood-brain barrier in vitro model” (Frontiers in Molecular Neuroscience, 2024).
Values joined by “and” are separate entries in the source; they are usually repeats but may differ in a detail not shown here. Identical values can stand only once.

Legend:
Aβ40 1-40 (Homo sapiens) = Aβ40 1-40 (Homo sapiens) (UniProt P05067)
[1] = molecular target: Aβ42 oligomers 1-42 (Homo sapiens) (UniProt P05067); test: surface plasmon resonance
Sequence of Aβ42 oligomers 1-42 (Homo sapiens) (P05067 1-42): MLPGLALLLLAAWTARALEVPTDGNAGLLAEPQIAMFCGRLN

Sequence of Aβ40 1-40 (Homo sapiens) (P05067 1-40): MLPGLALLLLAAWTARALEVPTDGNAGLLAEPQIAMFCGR

Kd (Aβ40 1-40 (Homo sapiens)) | Kd [1] [nM] | Substance
75 nM and 57 nM |  | RAGE (from UniProt Q15109)
 | 17 | sRAGE (from UniProt Q15109)
